B1: TPP-958: PD138G7(G109D)-6GS-172E1-13-6GS-HSA3-His (bispecific antibody)
chain: EVQLVESGGGVVRPGGSLRLSCAASGFTFDDYAMSWVRQAPGKGLEWVSGITWNGGSTGYADSVKDRFTISRDNAKNSLYLQMNSLRAEDTALYYCVRDKYSYAWSYDDFDIWGQGTMVTVSSGGGGSGGGGSGGGGSGGGGSGGGGSGGGGSEVQLVESGGGVVQPGGSLRLSCAASGFTFSNYGMHWVRQAPGKGLEWVAVISNDGNTKTYADSVKGRFTISRDNSKNTLYLQMNSLRAEDTAVYYCAQDETTTVTASYYFDYWGQGTLVTVSSGGGGSGGGGSGGGGSGGGGSGGGGSGGGGSEVQLLESGGGLVKPGGSLRLSCAASGFTVSSYTMNWVRQAPGKGLEWVSSISSSGRYIYYADSVKGRFTISRDNAKNSLYLQMNSLRAEDTAVYYCARDPRMVGNPHEFDIWGQGTMVTVSSAAAHHHHHH
B2: TPP-1009: PDA-6GS-hsa1-6GS-CD137D-His (bispecific antibody)
chain: EVQLVESGGGLVQPGRSLRLSCAASGFTFDDYALHWVRQAPGKDLEWVSGISWNGGSYGYADSVKGRFTISRDNAKNSLYLQMNSLRAEDTALYYCVREKGPGLTGSTADYYGLDAWGQGTMVTVSSGGGGSGGGGSGGGGSGGGGSGGGGSGGGGSEVQLVESGGGLVQPGRSLRLSCAASGFTFHHYAMHWVRQAPGKGLEWVSGISWNGNKITYADSVKGRFTISRDNAKNSLYLQMNSLRAEDTALYYCVRDSSLFIVGAPTFEHWGRGTLVTVSSGGGGSGGGGSGGGGSGGGGSGGGGSGGGGSEVQLVESGGGVVQPGGSLRLSCAASGFTFSNYGMHWVRQAPGKGLEWVAVISNDGNTKTYADSVKGRFTISRDNSKNTLYLQMNSLRAEDTAVYYCAQDETTTVTASYYFDYWGQGTLVTVSSAAAHHHHHH
B3: TPP-1008: PDA-6GS-HSA3-6GS-CD137D-His (bispecific antibody)
chain: EVQLVESGGGLVQPGRSLRLSCAASGFTFDDYALHWVRQAPGKDLEWVSGISWNGGSYGYADSVKGRFTISRDNAKNSLYLQMNSLRAEDTALYYCVREKGPGLTGSTADYYGLDAWGQGTMVTVSSGGGGSGGGGSGGGGSGGGGSGGGGSGGGGSEVQLLESGGGLVKPGGSLRLSCAASGFTVSSYTMNWVRQAPGKGLEWVSSISSSGRYIYYADSVKGRFTISRDNAKNSLYLQMNSLRAEDTAVYYCARDPRMVGNPHEFDIWGQGTMVTVSSGGGGSGGGGSGGGGSGGGGSGGGGSGGGGSEVQLVESGGGVVQPGGSLRLSCAASGFTFSNYGMHWVRQAPGKGLEWVAVISNDGNTKTYADSVKGRFTISRDNSKNTLYLQMNSLRAEDTAVYYCAQDETTTVTASYYFDYWGQGTLVTVSSAAAHHHHHH
B4: TPP-985: CD137D-6GS-HSA2-2-6GS-PDA2-His (bispecific antibody)
chain: EVQLVESGGGVVQPGGSLRLSCAASGFTFSNYGMHWVRQAPGKGLEWVAVISNDGNTKTYADSVKGRFTISRDNSKNTLYLQMNSLRAEDTAVYYCAQDETTTVTASYYFDYWGQGTLVTVSSGGGGSGGGGSGGGGSGGGGSGGGGSGGGGSEVQLVESGGGLVKPGGSLRLSCAASGFTFSNYNMNWVRQAPGKGLEWVSSISSAGTHIYYADSVKGRFTISRDNAKNSLYLQMNSLRAEDTAVYYCARDPHSTGWYKDFDYWGQGTLVTVSSGGGGSGGGGSGGGGSGGGGSGGGGSGGGGSEVQLVESGGGVVRPGGSLRLSCAASGFTFDDYAMSWVRQAPGKGLEWVSGITWNAGSTGYADSVKGRFTISRDNAKNSLYLQMNSLRAEDTALYYCVRDKYSYAWSYDDFDIWGQGTMVTVSSAAAHHHHHH
B5: TPP-957; PD138G7(G109D)-6GS-172E1-13-6GS-HSA2-His (bispecific antibody)
chain: EVQLVESGGGVVRPGGSLRLSCAASGFTFDDYAMSWVRQAPGKGLEWVSGITWNGGSTGYADSVKDRFTISRDNAKNSLYLQMNSLRAEDTALYYCVRDKYSYAWSYDDFDIWGQGTMVTVSSGGGGSGGGGSGGGGSGGGGSGGGGSGGGGSEVQLVESGGGVVQPGGSLRLSCAASGFTFSNYGMHWVRQAPGKGLEWVAVISNDGNTKTYADSVKGRFTISRDNSKNTLYLQMNSLRAEDTAVYYCAQDETTTVTASYYFDYWGQGTLVTVSSGGGGSGGGGSGGGGSGGGGSGGGGSGGGGSEVQLVESGGGLVKPGGSLRLSCAASGFTFSNYNMNWVRQAPGKGLEWVSSISSAGTHIYYADSVKGRFTISRDNAKNSLYLQMNSLRAEDTAVYYCARDPHSTGWYKDFDYWGQGTLVTVSSAAAHHHHHH
B6: TPP-982: CD137A-6GS-HSA2-6GS-PDA-His (bispecific antibody)
chain: EVQLVESGGGLVQPGGSLRLSCAASGFTLSNYWMNWVRQAPGKGLEWVANINQDGSERYYVDSVKGRFTISRDNAKNSLYLQMNSLRAEDTAVYYCARGGEGYGVDHYGLDVSGQGTTVTVSSGGGGSGGGGSGGGGSGGGGSGGGGSGGGGSEVQLVESGGGLVKPGGSLRLSCAASGFTFSNYNMNWVRQAPGKGLEWVSSISSAGTHIYYADSVKGRFTISRDNAKNSLYLQMNSLRAEDTAVYYCARDPHSTGWYKDFDYWGQGTLVTVSSGGGGSGGGGSGGGGSGGGGSGGGGSGGGGSEVQLVESGGGLVQPGRSLRLSCAASGFTFDDYALHWVRQAPGKDLEWVSGISWNGGSYGYADSVKGRFTISRDNAKNSLYLQMNSLRAEDTALYYCVREKGPGLTGSTADYYGLDAWGQGTMVTVSSAAAHHHHHH
B7: TPP-1011: PD138G7(G109D)-6GS-HSA3-6GS-CD137D-His (bispecific antibody)
chain: EVQLVESGGGVVRPGGSLRLSCAASGFTFDDYAMSWVRQAPGKGLEWVSGITWNGGSTGYADSVKDRFTISRDNAKNSLYLQMNSLRAEDTALYYCVRDKYSYAWSYDDFDIWGQGTMVTVSSGGGGSGGGGSGGGGSGGGGSGGGGSGGGGSEVQLLESGGGLVKPGGSLRLSCAASGFTVSSYTMNWVRQAPGKGLEWVSSISSSGRYIYYADSVKGRFTISRDNAKNSLYLQMNSLRAEDTAVYYCARDPRMVGNPHEFDIWGQGTMVTVSSGGGGSGGGGSGGGGSGGGGSGGGGSGGGGSEVQLVESGGGVVQPGGSLRLSCAASGFTFSNYGMHWVRQAPGKGLEWVAVISNDGNTKTYADSVKGRFTISRDNSKNTLYLQMNSLRAEDTAVYYCAQDETTTVTASYYFDYWGQGTLVTVSSAAAHHHHHH
B8: TPP-983: CD137A-6GS-HSA2-6GS-PDA2-His (bispecific antibody)
chain: EVQLVESGGGLVQPGGSLRLSCAASGFTLSNYWMNWVRQAPGKGLEWVANINQDGSERYYVDSVKGRFTISRDNAKNSLYLQMNSLRAEDTAVYYCARGGEGYGVDHYGLDVSGQGTTVTVSSGGGGSGGGGSGGGGSGGGGSGGGGSGGGGSEVQLVESGGGLVKPGGSLRLSCAASGFTFSNYNMNWVRQAPGKGLEWVSSISSAGTHIYYADSVKGRFTISRDNAKNSLYLQMNSLRAEDTAVYYCARDPHSTGWYKDFDYWGQGTLVTVSSGGGGSGGGGSGGGGSGGGGSGGGGSGGGGSEVQLVESGGGVVRPGGSLRLSCAASGFTFDDYAMSWVRQAPGKGLEWVSGITWNAGSTGYADSVKGRFTISRDNAKNSLYLQMNSLRAEDTALYYCVRDKYSYAWSYDDFDIWGQGTMVTVSSAAAHHHHHH
B9: TPP-971: PDA2-6GS-HSA2-6GS-172E1-13-His (bispecific antibody)
chain: EVQLVESGGGVVRPGGSLRLSCAASGFTFDDYAMSWVRQAPGKGLEWVSGITWNAGSTGYADSVKGRFTISRDNAKNSLYLQMNSLRAEDTALYYCVRDKYSYAWSYDDFDIWGQGTMVTVSSGGGGSGGGGSGGGGSGGGGSGGGGSGGGGSEVQLVESGGGLVKPGGSLRLSCAASGFTFSNYNMNWVRQAPGKGLEWVSSISSAGTHIYYADSVKGRFTISRDNAKNSLYLQMNSLRAEDTAVYYCARDPHSTGWYKDFDYWGQGTLVTVSSGGGGSGGGGSGGGGSGGGGSGGGGSGGGGSEVQLVESGGGVVQPGGSLRLSCAASGFTFSNYGMHWVRQAPGKGLEWVAVISNDGNTKTYADSVKGRFTISRDNSKNTLYLQMNSLRAEDTAVYYCAQDETTTVTASYYFDYWGQGTLVTVSSAAAHHHHHH
B10: TPP-975: CD137D-6GS-PDA2-6GS-HSA2-His (bispecific antibody)
chain: EVQLVESGGGVVQPGGSLRLSCAASGFTFSNYGMHWVRQAPGKGLEWVAVISNDGNTKTYADSVKGRFTISRDNSKNTLYLQMNSLRAEDTAVYYCAQDETTTVTASYYFDYWGQGTLVTVSSGGGGSGGGGSGGGGSGGGGSGGGGSGGGGSEVQLVESGGGVVRPGGSLRLSCAASGFTFDDYAMSWVRQAPGKGLEWVSGITWNAGSTGYADSVKGRFTISRDNAKNSLYLQMNSLRAEDTALYYCVRDKYSYAWSYDDFDIWGQGTMVTVSSGGGGSGGGGSGGGGSGGGGSGGGGSGGGGSEVQLVESGGGLVKPGGSLRLSCAASGFTFSNYNMNWVRQAPGKGLEWVSSISSAGTHIYYADSVKGRFTISRDNAKNSLYLQMNSLRAEDTAVYYCARDPHSTGWYKDFDYWGQGTLVTVSSAAAHHHHHH
B11: TPP-1012 PD138G7(G109D)-6GS-HSA1-6GS-CD137D-His (bispecific antibody)
chain: EVQLVESGGGVVRPGGSLRLSCAASGFTFDDYAMSWVRQAPGKGLEWVSGITWNGGSTGYADSVKDRFTISRDNAKNSLYLQMNSLRAEDTALYYCVRDKYSYAWSYDDFDIWGQGTMVTVSSGGGGSGGGGSGGGGSGGGGSGGGGSGGGGSEVQLVESGGGLVQPGRSLRLSCAASGFTFHHYAMHWVRQAPGKGLEWVSGISWNGNKITYADSVKGRFTISRDNAKNSLYLQMNSLRAEDTALYYCVRDSSLFIVGAPTFEHWGRGTLVTVSSGGGGSGGGGSGGGGSGGGGSGGGGSGGGGSEVQLVESGGGVVQPGGSLRLSCAASGFTFSNYGMHWVRQAPGKGLEWVAVISNDGNTKTYADSVKGRFTISRDNSKNTLYLQMNSLRAEDTAVYYCAQDETTTVTASYYFDYWGQGTLVTVSSAAAHHHHHH
B12: TPP-984: CD137D-6GS-HSA2-6GS-PDA-His (bispecific antibody)
chain: EVQLVESGGGVVQPGGSLRLSCAASGFTFSNYGMHWVRQAPGKGLEWVAVISNDGNTKTYADSVKGRFTISRDNSKNTLYLQMNSLRAEDTAVYYCAQDETTTVTASYYFDYWGQGTLVTVSSGGGGSGGGGSGGGGSGGGGSGGGGSGGGGSEVQLVESGGGLVKPGGSLRLSCAASGFTFSNYNMNWVRQAPGKGLEWVSSISSAGTHIYYADSVKGRFTISRDNAKNSLYLQMNSLRAEDTAVYYCARDPHSTGWYKDFDYWGQGTLVTVSSGGGGSGGGGSGGGGSGGGGSGGGGSGGGGSEVQLVESGGGLVQPGRSLRLSCAASGFTFDDYALHWVRQAPGKDLEWVSGISWNGGSYGYADSVKGRFTISRDNAKNSLYLQMNSLRAEDTALYYCVREKGPGLTGSTADYYGLDAWGQGTMVTVSSAAAHHHHHH

Target: human CD137 expressed on cells (Jurkat human CD137 NF-kB luciferase reporter cells; human CD8+ T cells) (human, UniProt Q07011 24-255)
Test: cell-based or functional assay

| Jurkat-CD137/CHO-PD-1 Reporter Assay EC50 | Binder |
| --- | --- |
| 10.9 nM | B1 |
| 34.7 nM | B2 |
| 3.61 nM | B3 |
| 21.7 nM | B4 |
| 11 nM | B5 |
| 0.57 nM | B6 |
| 4.11 nM | B7 |
| 0.556 nM | B8 |
| 7.18 nM | B9 |
| 11.5 nM | B10 |
| 5.29 nM | B11 |
| 11.8 nM | B12 |

Source: patent publication US20220220215A1 (CRESCENDO BIOLOGICS, published 2022)
